Earlier results, collected in patent publication US20230149374A1, “METHODS AND COMPOSITIONS FOR TREATING ATHEROSCLEROSIS” (Sanford Burnham Prebys Medical Discovery Institute, priority 2021, published 2023).

System: patient with TNAP deficiency
Settings: administration for 8 months, very high blood TNAP activity; cited from earlier work

B1: recombinant TNAP: recombinant TNAP administered for 8 months in a patient with TNAP deficiency (protein, UniProt P05186 18-501, looked up)
Alkaline phosphatase, …: LVPEKEKDPKYWRDQAQETLKYALELQKLNTNVAKNVIMFLGDGMGVSTVTAARILKGQLHHNPGEETRLEMDKFPFVALSKTYNTNAQVPDSAGTATAYLCGVKANEGTVGVSAATERSRCNTTQGNEVTSILRWAKDAGKSVGIVTTTRVNHATPSAAYAHSADRDWYSDNEMPPEALSQGCKDIAYQLMHNIRDIDVIMGGGRKYMYPKNKTDVEYESDEKARGTRLDGLDLVDTWKSFKPRYKHSHFIWNRTELLTLDPHNVDYLLGLFEPGDMQYELNRNNVTDPSLSEMVVVAIQILRKNPKGFFLLVEGGRIDHGHHEGKAKQALHEAVEMDRAIGQAGSLTSSEDTLTVVTADHSHVFTFGGYTPRGNSIFGLAPMLSDTDKKPFTAILYGNGPGYKVVGGERENVSMVDYAHNNYQAQSAVPLRHETHGGEDVAVFSKGPMAHLLHGVHEQNYVPHVMAYAACIGANLGHCAPAS
  vascular calcium score: did not increase
